This series deals with CC(C)(COP(=O)(O)OP(=O)(O)OC[C@H]1O[C@@H](n2cnc3c(N)ncnc32)[C@H](O)[C@@H]1OP(=O)(O)O)[C@@H](O)C(=O)NCCC(=O)NCCSC(=O)CCC(=O)O. The experiment in a line: Malyl-CoA reductase activity, reductive sense (Assay 1). The format is biochemical, Porphyromonas gingivalis W83. Particulars: other: reductive sense, succinyl-CoA added directly, NADPH, pH 7.5, 37° C. On the procedure: NCBI references of the utilized mcr and sucD protein sequences, and the references for the corresponding natural and synthetic DNA sequences are listed in Table 2.
Expression and purification of Pg-SucD was carried out as described in Example 1 using plasmid pET28-Pgi-sucD.
Malyl-CoA reductase activity was assayed in the reductive and in the oxidative sense of the reaction employing Assay 1 or Assay 2, respectively.
Assay 1 (Reaction Scheme): glyoxylate+acetyl-CoA→malyl-CoA+acetate Malyl-CoA lyase: (L)-Malyl-CoA+NADPH→(L)-Malate semialdehyde+Coenzyme A+NADP Malyl-CoA reductase: Assay 2 (Reaction Scheme): (L)-Malate semialdehyde+Coenzyme A+NADP→(L)-Malyl-CoA+NADPH The reaction mixture according to Assay 1 contained 50 mM MOPS/KOH (pH 7.5), […], and appropriate amounts of purified malyl-CoA reductase or cell extract. Reactions were started by adding glyoxylate. Enzymatic assays were carried out at 37° C. in 96-well flat bottomed microtiter plates in a final volume of 250 μL. The reactions were followed by the characteristic absorption of NADPH at 340 nm (εNADPH=6.22 mM^−1 cm^−1) in a microplate reader (BioRad 680XR).

Here are results for 1 substance from patent publication US9890400B2, “Method of production of 2,4-dihydroxybutyric acid” (ADISSEO FRANCE S.A.S., priority 2012, dated 2018).

In general, Km refers to the substrate concentration at which the rate is half of its maximum. What is called Vmax is the rate approached at saturating substrate. Turning to “Porphyromonas gingivalis succinyl-CoA reductase (Pg-SucD), wild type, SEQ ID No. 10 (Porphyromonas gingivalis W83)”, the Km was 1000 µM and the maximal velocity (Vmax) was determined as 1 µmol/min/mg.
